Test results taken from patent US7365239 (Stanford University, dated 2008).

Biological target: T1, full-length mouse RabGEF1 expressed as GAL-4 activation domain fusion protein (mouse, UniProt Q9JM13 1-491)
T1 construct: mature; Yeast two-hybrid prey in pACT2; also called Rabex-5
Assay: yeast two-hybrid, beta-galactosidase assays
From the text: FIG. 2A-2C. Homology of RabGEF1 with members of a Rab5 binding protein family and direct interaction of RabGEF1 with Ras. (a) Alignment of amino acid sequences of mouse RabGEF1 (SEC ID NO:5) with the Vps9p domains of Vps9p (SEC ID NO:6), Rin1, (SEC ID NO:7), and JC265(SEC ID NO:8). The Vps9p domains of Vps9p, RIN1, and JC265 and the proposed GBH motifs I(SEC ID NO:9), II(SEC ID NO:10), and III(SEC ID NO:11) illustrated here represent those previously described. Identical amino acids or conservative substitutions present in three or four proteins are shaded. […] Different segments of the mouse RabGEF1 protein (shaded areas are Vps9p domains; black areas are putative GBH motifs) were expressed as GAL-4 activation domain fusion proteins, whereas the mouse H-Ras and yeast Ras2p proteins were expressed as DNA-binding fusion proteins. Positive interactions were assessed with both a qualitative colony-lift β-galactosidase filter assay using X-gal as the substrate (Colony color) and a quantitative liquid culture β-galactosidase assay using chlorophenol red-β-D-galactopyranoside as the substrate (Relative β-Gal units). […] The pulled-down RabGEF1 was detected using an anti-RabGEF1 antibody. […]
Yeast two-hybrid assay. […] The entire open reading frame and different segments of the open reading frame of the mouse RabGEF1 cDNA were separately subcloned, in frame, into the pACT2 vector.

T1 sequence (Q9JM13 whole entry, the tested form may be a part): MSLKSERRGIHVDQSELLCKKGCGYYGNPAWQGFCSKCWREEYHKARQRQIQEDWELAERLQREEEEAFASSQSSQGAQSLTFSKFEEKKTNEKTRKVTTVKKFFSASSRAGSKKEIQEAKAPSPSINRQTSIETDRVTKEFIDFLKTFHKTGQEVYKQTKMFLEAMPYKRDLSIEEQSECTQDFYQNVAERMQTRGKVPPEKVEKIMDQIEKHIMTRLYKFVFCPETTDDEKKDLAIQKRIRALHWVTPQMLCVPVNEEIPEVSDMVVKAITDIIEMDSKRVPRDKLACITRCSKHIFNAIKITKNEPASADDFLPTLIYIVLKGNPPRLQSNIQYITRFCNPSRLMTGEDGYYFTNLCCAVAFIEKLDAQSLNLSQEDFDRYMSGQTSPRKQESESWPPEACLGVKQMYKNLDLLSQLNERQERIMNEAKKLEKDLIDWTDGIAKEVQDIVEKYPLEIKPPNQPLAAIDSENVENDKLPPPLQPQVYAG

B1: yeast Ras2p expressed as DNA-binding fusion protein (other, UniProt P04386 1-147, looked up)
chain: MKLLSSIEQACDICRLKKLKCSKEKPKCAKCLKNNWECRYSPKTKRSPLTRAHLTEVESRLERLEQLFLLIFPREDLDMILKMDSLQDIKALLTGLFVQDNVNKDAVTDRLASVETDMPLTLRQHRISATSSSEESSNKGQRQLTVSMPLNKSNIREYKLVVVGGGGVGKSALTIQLTQSHFVDEYDPTIEDSYRKQVVIDDEVSILDILDTAGQEEYSAMREQYMRNGEGFLLVYSITSKSSLDELMTYYQQILRVKDTDYVPIVVVGNKSDLENEKQVSYQDGLNMAKQMNAPFLETSAKQAINVEEAFYTLARLVRDEGGKYNKTLTENDNSKQTSQDTKGSGANSVPRNSGGHRKMSNAANGKNVNSSTTVVNARNASIESKTGLAGNQATNGKTQTDRTNIDNSTGQAGQANAQSANTVNNRVNNNSKAGQVSNAKQARKQQAAPGGNTSEASKSGSGGSCIIS
binding result: no binding
